Reference: PMC2711036 (Molecular cell, 2009)

T1: Srs2^CΔ276 (S. cerevisiae, UniProt P12954 1-898)
T1 sequence (looked up): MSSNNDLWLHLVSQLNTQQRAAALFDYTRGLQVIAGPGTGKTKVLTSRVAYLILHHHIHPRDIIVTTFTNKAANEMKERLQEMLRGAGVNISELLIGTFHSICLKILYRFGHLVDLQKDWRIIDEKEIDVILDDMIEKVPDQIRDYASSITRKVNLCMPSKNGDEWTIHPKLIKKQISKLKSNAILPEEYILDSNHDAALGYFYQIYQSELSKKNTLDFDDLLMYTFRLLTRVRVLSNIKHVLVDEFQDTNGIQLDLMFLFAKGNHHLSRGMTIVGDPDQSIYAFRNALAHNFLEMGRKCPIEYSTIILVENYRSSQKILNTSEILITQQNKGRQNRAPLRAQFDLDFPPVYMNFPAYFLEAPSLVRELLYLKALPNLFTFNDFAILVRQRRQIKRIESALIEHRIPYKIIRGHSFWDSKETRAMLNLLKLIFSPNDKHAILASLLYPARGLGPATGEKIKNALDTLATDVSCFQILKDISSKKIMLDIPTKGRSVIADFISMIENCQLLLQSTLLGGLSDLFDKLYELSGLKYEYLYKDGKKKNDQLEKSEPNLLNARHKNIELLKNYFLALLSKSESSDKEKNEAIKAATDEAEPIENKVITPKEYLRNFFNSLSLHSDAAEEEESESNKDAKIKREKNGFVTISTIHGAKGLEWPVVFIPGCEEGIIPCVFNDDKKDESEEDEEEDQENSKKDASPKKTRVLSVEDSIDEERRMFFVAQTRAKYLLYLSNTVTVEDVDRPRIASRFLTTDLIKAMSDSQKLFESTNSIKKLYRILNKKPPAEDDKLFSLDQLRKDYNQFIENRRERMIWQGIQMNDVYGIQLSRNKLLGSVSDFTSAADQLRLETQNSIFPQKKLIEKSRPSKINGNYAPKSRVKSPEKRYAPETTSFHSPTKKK


What was measured:
Srs2^CΔ276 = biological target: T1, Srs2^CΔ276; experiment: SPR
Rad51 (yRad51 wild type) = Rad51 (yRad51 wild type) (Saccharomyces cerevisiae, UniProt P25454 1-400); experiment: stopped-flow Cy3 fluorescence
Rad51-E221D = Rad51-E221D (Saccharomyces cerevisiae, UniProt P25454 1-400, E221D); experiment: stopped-flow Cy3 fluorescence

Row | Binder | Kd (Srs2^CΔ276) | apparent K (half saturation) (Rad51 (yRad51 wild type)) | apparent K (half saturation) (Rad51-E221D)
1 | Rad51 (natural protein, S. cerevisiae (yeast Rad51, yRad51), UniProt P25454 1-400, looked up) MSQVQEQHISESQLQYGNGSLMSTVPADLSQSVVDGNGNGSSEDIEATNGSGDGGGLQEQAEAQGEMEDEAYDEAALGSFVPIEKLQVNGITMADVKKLRESGLHTAEAVAYAPRKDLLEIKGISEAKADKLLNEAARLVPMGFVTAADFHMRRSELICLTTGSKNLDTLLGGGVETGSITELFGEFRTGKSQLCHTLAVTCQIPLDIGGGEGKCLYIDTEGTFRPVRLVSIAQRFGLDPDDALNNVAYARAYNADHQLRLLDAAAQMMSESRFSLIVVDSVMALYRTDFSGRGELSARQMHLAKFMRALQRLADQFGVAVVVTNQVVAQVDGGMAFNPDPKKPIGGNIMAHSSTTRLGFKKGKGCQRLCKVVDSPCLPEAECVFAIYEDGVGDPREEDE | 15.2 ± 5 µM |  | 
2 | 5'-Cy3-dT79 (ssDNA) DNA: TTTTTTTTTTTTTTTTTTTTTTTTTTTTTTTTTTTTTTTTTTTTTTTTTTTTTTTTTTTTTTTTTTTTTTTTTTTTTTT |  | 1.55 ± 0.3 nM as printed | 2.17 ± 0.6 nM as printed
